The data set “cross-linking” deals with the molecule itself. The data set is described as follows: cross-linking.
Substrate in data set [1]: N[C@@H](CCS)C(=O)O
The data set is described as follows: cystathionine production by LC-MS/MS, non-linear fit. It is filed as biochemical, Caenorhabditis elegans. Conditions: co-substrate serine, 100 mM Bis/Tris pH 8.0, 25 °C.

Substrate in data set [2]: N[C@@H](CO)C(=O)O
Described as above. It is filed as biochemical, Caenorhabditis elegans. Conditions: co-substrate homocysteine, 100 mM Bis/Tris pH 8.0, 25 °C.

In general, stoichiometry N refers to a count of units in the complex or per binding partner. The term Km denotes the concentration of substrate that gives half-maximal velocity. The kcat is the number of substrate molecules converted per active site and unit of time at saturation. What is called kcat/Km is the second-order rate constant that governs catalysis at low substrate concentration.

B1: human 45CBS (C-terminally truncated human cystathionine β-synthase, residues 1-413) (domain or fragment, UniProt P35520 1-413, looked up)
chain: MPSETPQAEVGPTGCPHRSGPHSAKGSLEKGSPEDKEAKEPLWIRPDAPSRCTWQLGRPASESPHHHTAPAKSPKILPDILKKIGDTPMVRINKIGKKFGLKCELLAKCEFFNAGGSVKDRISLRMIEDAERDGTLKPGDTIIEPTSGNTGIGLALAAAVRGYRCIIVMPEKMSSEKVDVLRALGAEIVRTPTNARFDSPESHVGVAWRLKNEIPNSHILDQYRNASNPLAHYDTTADEILQQCDGKLDMLVASVGTGGTITGIARKLKEKCPGCRIIGVDPEGSILAEPEELNQTEQTTYEVEGIGYDFIPTVLDRTVVDKWFKSNDEEAFTFARMLIAQEGLLCGGSAGSTVAVAVKAAQELQEGQRCVVILPDSVRNYMTKFLSDRWMLQKGFLKEEDLTEKKPWWWHLR
With B1, the “stoichiometry N” value in the data set “cross-linking” was determined as 2.

B2: CBS-1 (Caenorhabditis elegans) (protein)
chain: MIQNEVSATHGSTKKGITYNTILEAAQRPTPLVPLKKLKVEHQLQSDIYVKLEYLNIAGSLEDRTADKAFQFAEEIGVVRGDEVFVTAGGSAAISYATVAAVKGIKLTIYAPKGEFDLVDTVLHTLGVKTVELPFGTFAEARVQTDEAAQQKGVFSLNKFTTNAAFVANLQKTALEIEKAVNNKSIGKVGAVVIPLNTGAAAAGIAAYYKGIGEHGVRVVGVTCKKDTIPEMGLDLKNDLLQEYNVEKREVEEDEAYSFTRHLIGTEGIMAGPSSGAAVLEAIKLAKELPAGSTIVVVLMDGIRNYLRHFLDDDWITANKKDVVTRKDGPQPNSIYDPKVLVYDPTKLAGEWTQDPETKSWSHSEVEFNKFNPERPLVLDTVLDAIGKTPLVKLQHIPKAHGVKCNVYVKCEYMNAGGSTKDRIAKRMVEIAEKTGKPGKLVPGVTLIEPTSGNTGIGLSLASAVRGYKCIITMPKKMSKEKSIAMASLGSTIIRTPNEAGFDSPHSHIGVALRLKSEIQDAVVLDQYCNPGNPLAHYEETAEEIIYDMGDKHIDLVVLTAGTGGTVTGISRKIHERIPTAKVVGVDPHGSILAGPAETDIDFYEVEGIGYDFLPGTLDTSAIDYWAKSHDKESFLMARELIRSEGILCGGSSGCAVHYALEECKSLNLPAEANVVVLLPDGIRNYITKFLDDDWMNERHFLDA
In the case of B2, in data set [1], the Km worked out at 4.29 ± 0.97 mM, the kcat was determined as 43.3 ± 4.33 s⁻¹ and the kcat/Km was found to be 10000 M⁻¹ s⁻¹. For the same protein, in data set [2], the Michaelis constant (Km) was 5.57 ± 0.68 mM, the kcat was 48.1 ± 2.95 s⁻¹ and the kcat/Km worked out at 8500 M⁻¹ s⁻¹.
